By Kd is commonly meant the constant that tells how readily two partners part at equilibrium.

31 sequences from the Immune Epitope Database (IEDB) can be followed below.

Assay [1] deals with HLA-B*51:01. Briefly: IEDB peptide-MHC binding, purified MHC/competitive/fluorescence; filed as Kd, often an IC50 or EC50 that approximates it; ≥ and ≤ were set here for values at or beyond the usual limits of such assays. The note with it: source organism: Listeria monocytogenes FSL J1-194.
In assay [2] the target is HLA-A*68:02. Briefly: IEDB peptide-MHC binding, purified MHC/competitive/radioactivity; filed as Kd, often an IC50 or EC50 that approximates it; ≥ and ≤ were set here for values at or beyond the usual limits of such assays.
Assay [3] has as its target HLA-A*69:01. Briefly: IEDB peptide-MHC binding, purified MHC/direct/fluorescence; filed as Kd, often an IC50 or EC50 that approximates it; ≥ and ≤ were set here for values at or beyond the usual limits of such assays.
Assay [4] has as its target HLA-B*40:01. The assay is described as above.
In assay [5] the target is HLA-B*58:01. The assay is described as above.
The target of assay [6] is HLA-A*31:01. The assay is described as above.
The target of assay [7] is HLA-A*11:01. The description is as above.
Assay [8] concerns the target HLA-A*01:01. The description is as above.
Assay [9] has as its target HLA-B*15:01. The description is as above.
Assay [10] addresses HLA-B*07:02. Described as above.
For assay [11], the target named is HLA-A*26:01. Described as above.
For assay [12], the target named is HLA-B*08:01. Described as above.
The target in assay [13] is HLA-A*02:01. The assay is described as above.
The target of assay [14] is HLA-B*44:02. The description is as above.
Assay [15] deals with HLA-B*27:05. The assay is described as above.
Assay [16] concerns the target HLA-A*03:01. Described as above.
The target of assay [17] is HLA-A*24:03. Described as above.
Assay [18] has as its target HLA-B*39:01. As to the kind of experiment: IEDB peptide-MHC binding, purified MHC/competitive/fluorescence; filed as Kd, often an IC50 or EC50 that approximates it; ≥ and ≤ were set here for values at or beyond the usual limits of such assays. Conditions: source organism: Vibrio parahaemolyticus AQ3810.
The target in assay [19] is HLA-B*53:01. Briefly: IEDB peptide-MHC binding, purified MHC/competitive/radioactivity; filed as Kd, often an IC50 or EC50 that approximates it; ≥ and ≤ were set here for values at or beyond the usual limits of such assays. The note with it: source organism: Dengue virus 1 Brazil/97-11/1997.
For assay [20], the target named is HLA-B*15:01. The assay is described as above. Conditions: source organism: Dengue virus 1 Brazil/97-11/1997.
The target in assay [21] is HLA-B*35:01. Described as above.
The target of assay [22] is HLA-B*15:01. As to the kind of experiment: IEDB peptide-MHC binding, purified MHC/competitive/fluorescence; filed as Kd, often an IC50 or EC50 that approximates it; ≥ and ≤ were set here for values at or beyond the usual limits of such assays.
Assay [23] concerns the target HLA-A*02:01. Described as above.
For assay [24], the target named is HLA-B*57:01. As to the kind of experiment: IEDB peptide-MHC binding, purified MHC/direct/fluorescence; filed as Kd, often an IC50 or EC50 that approximates it; ≥ and ≤ were set here for values at or beyond the usual limits of such assays. Conditions: source organism: Campylobacter jejuni.
Assay [25] deals with HLA-A*02:06. Briefly: IEDB peptide-MHC binding, purified MHC/competitive/radioactivity; filed as Kd, often an IC50 or EC50 that approximates it; ≥ and ≤ were set here for values at or beyond the usual limits of such assays.
Assay [26] addresses HLA-A*02:02. The assay is described as above.
The target in assay [27] is HLA-A*02:03. The description is as above.
In assay [28] the target is HLA-A*24:02. The description is as above.
The target of assay [29] is HLA-A*30:01. The description is as above. The note with it: source organism: Dengue virus 3 Martinique/1243/1999.
In assay [30] the target is HLA-A*29:02. The assay is described as above. The note with it: source organism: Mammarenavirus machupoense.
Assay [31] addresses HLA-A*23:01. The description is as above. Conditions: source organism: Mammarenavirus machupoense.
Where [32] appears, read: source organism: Dengue virus 1 Singapore/S275/1990.
Setting [33] is: source organism: Rickettsia sibirica.
Setting [34] is: source organism: Dengue virus 4 Philippines/H241/1956.
The mark [35] stands for this setting: source organism: Dengue virus 1 Brazil/97-11/1997.
Where [36] appears, read: source organism: Escherichia coli O139:H28 str. E24377A.
The mark [37] stands for this setting: source organism: Dengue virus 2 Jamaica/1409/1983.
[38] abbreviates: source organism: Lassa virus Josiah.
The mark [39] stands for this setting: source organism: Giardia lamblia ATCC 50803.
[40] abbreviates: source organism: Cryptosporidium parvum.
Setting [41] is: source organism: Vibrio vulnificus.
Setting [42] is: source organism: Shigella dysenteriae.

In assay [1], LKYAPFFQV showed a Kd of at least 20000 nM.

Turning to SSVLLWMASV, in assay [2] (setting [32]), the dissociation constant (Kd) was 45.2 nM.

Take ASDRISGIL: the Kd was at least 20000 nM in assay [3] (setting [33]); 1460 nM in assay [4] (setting [33]); at least 20000 nM in assay [5] (setting [33]); at least 20000 nM in assay [6] (setting [33]); at least 20000 nM in [7] (setting [33]); 6550 nM in [8] (setting [33]). Moreover, the dissociation constant Kd in assay [9] (setting [33]) is 5160 nM; in assay [10] (setting [33]), 14600 nM; in [11] (setting [33]) it was at least 20000 nM; in [12] (setting [33]) it was at least 20000 nM; in assay [13] (setting [33]), at least 20000 nM; in assay [14] (setting [33]), at least 20000 nM. The dissociation constant (Kd) in assay [15] (setting [33]), in [16] (setting [33]) and in [17] (setting [33]) was at least 20000 nM in each case.

With THPERTLRL, the Kd in assay [18] was determined as 2500 nM.

For the sequence ITVSGLYPL, in assay [2] (setting [34]), the Kd was 12.3 nM.

Take IAMTDTTPF: the figures for the Kd in [19], in [20] and in assay [21] (setting [35]) were 172 nM, 4.25 nM and 1.18 nM, respectively.

As to KMSGKTPAV, the dissociation constant Kd in assay [22] (setting [36]) was determined as 1160 nM; in [23] (setting [36]), 1.7 nM.

With KSNKIRGRM, the dissociation constant (Kd) in [5] (source organism: Campylobacter jejuni) is 192 nM; in assay [24], 988 nM.

As for MTGPLVAGGL, in assay [2] (setting [37]), the equilibrium dissociation constant (Kd) was 21.6 nM.

Consider RLLGTFTWTL, for which the dissociation constant (Kd) in [25] (setting [38]) is 7.55 nM; in assay [2] (setting [38]), at least 5000 nM; in assay [26] (setting [38]), 117 nM; in assay [27] (setting [38]), 106 nM.

Consider EMKLRQKQL, for which the results for the dissociation constant (Kd) in [12] (setting [39]) and in [23] (setting [39]) were 38 nM and at least 20000 nM, respectively.

Take MAIGIVSIL: in assay [2] (setting [35]), the Kd was 2.39 nM.

For the sequence IANQAAVLM, the Kd in [21] (setting [34]) was 75.1 nM.

Take LPGADTQGSN: the Kd in assay [21] (setting [37]) turned out to be 2840 nM.

MKLVMAFIAF: the Kd in assay [21] (setting [35]) came out at 1830 nM.

Regarding ELVDTTEMY, the dissociation constant (Kd) stood at 207 nM in [11] (source organism: Mycobacterium tuberculosis variant bovis) and 324 nM in assay [22] (source organism: Mycobacterium tuberculosis H37Rv).

As for MAVGIVSILL, the dissociation constant Kd in [2] (setting [32]) was determined as 5.58 nM.

For LAYTIGTTHF, the values for the dissociation constant Kd in [28] (setting [37]) and in assay [21] (setting [37]) were 230 nM and 1410 nM, respectively.

On to LSMGLIAIAV, for which the dissociation constant (Kd) in assay [25] (setting [34]) was found to be 5.23 nM; in assay [2] (setting [34]) it was 588 nM.

As for KLKNKHEAMI, the figures for the dissociation constant (Kd) in assay [25] (source organism: Homo sapiens) and in assay [2] (source organism: Homo sapiens) were at least 50300 nM and 10300 nM, respectively.

As to YPKTKLTDWD, in assay [21] (setting [34]), the Kd was 1310 nM.

For MVHQIFGSA, the Kd in assay [29] was determined as 29.6 nM; in assay [2] (source organism: Dengue virus 3 Martinique/1243/1999), 16.7 nM.

In the case of RLLRMNNEN, the equilibrium dissociation constant (Kd) in assay [3] (setting [40]), in assay [4] (setting [40]), in assay [5] (setting [40]), in assay [6] (setting [40]), in assay [7] (setting [40]) and in assay [8] (setting [40]) was at least 20000 nM each time. For the same sequence, the Kd in assay [9] (setting [40]), in assay [11] (setting [40]), in [12] (setting [40]), in assay [13] (setting [40]), in [14] (setting [40]) and in assay [15] (setting [40]) was at least 20000 nM in each case. For the same sequence, in assay [16] (setting [40]), the equilibrium dissociation constant (Kd) was at least 20000 nM.

For ESLETLMLV, the Kd in assay [2] (setting [34]) is 162 nM.

Take GSEVPGFCH: the dissociation constant Kd in assay [3] (setting [41]), in [4] (setting [41]), in assay [5] (setting [41]), in assay [6] (setting [41]), in assay [7] (setting [41]) and in assay [8] (setting [41]) was at least 20000 nM each time. Besides, the Kd in assay [9] (setting [41]), in assay [10] (setting [41]), in [11] (setting [41]), in assay [12] (setting [41]), in [13] (setting [41]) and in assay [14] (setting [41]) was at least 20000 nM in each case. Moreover, the Kd in assay [15] (setting [41]), in assay [16] (setting [41]) and in assay [17] (setting [41]) was at least 20000 nM throughout.

As to AEMRETHWL, the dissociation constant Kd in assay [3] (setting [42]) was at least 20000 nM; in [4] (source organism: Escherichia coli) it was 6.21 nM; in [5] (setting [42]), at least 20000 nM; in assay [6] (setting [42]), at least 20000 nM; in [7] (setting [42]), at least 20000 nM; in assay [8] (setting [42]) it was at least 20000 nM. The Kd in assay [10] (setting [42]) was at least 20000 nM; in [11] (setting [42]), at least 20000 nM; in assay [12] (setting [42]) it was at least 20000 nM; in [13] (setting [42]) it was at least 20000 nM; in assay [14] (setting [42]), 2000 nM; in assay [15] (setting [42]), at least 20000 nM. Besides, in assay [16] (setting [42]), the Kd is at least 20000 nM.

Sequence ILWILDRLF gave an equilibrium dissociation constant (Kd) in [22] (source organism: Influenza A virus (A/Memphis/1/1978(H1N1))) of at least 20000 nM.

PYENLLYKL: the Kd is 785 nM in assay [17] (source organism: Mammarenavirus paranaense), 521 nM in assay [28] (source organism: Mammarenavirus machupoense), 2340 nM in assay [30] and 81.5 nM in assay [31].

On to GYCLTRWML, for which the Kd in assay [17] (source organism: Mammarenavirus lassaense) turned out to be 39.5 nM.

Consider DLENRCQSL, for which the dissociation constant Kd in assay [25] (source organism: Homo sapiens) is at least 78700 nM; in assay [2] (source organism: Homo sapiens) it was at least 107000 nM; in assay [26] (source organism: Homo sapiens), 12400 nM; in assay [27] (source organism: Homo sapiens), at least 32800 nM.

GYQHKTLAI came in with an equilibrium dissociation constant (Kd) in assay [17] (setting [41]) of 6.5 nM.
